The record followed here is article PMC5651854, “Reconstitution of human shelterin complexes reveals unexpected stoichiometry and dual pathways to enhance telomerase processivity” (Nature Communications, 2017).

Assay [1] concerns the target Human TIN2 (human) (UniProt Q9BSI4). Put plainly: SEC-MALS; purified proteins or co-expressed, purified complexes at 1 mg ml^−1, 100 µl on Superose 6 Increase 10/300 GL, 0.5 ml min^−1, 25 °C, 50 mM HEPES pH 7.5, 300 mM NaCl, 1 mM TCEP.
The target of assay [2] is mCherry-TIN2S, Q9BSI4-2. Put plainly: LacI-LacO array fluorescence colocalization in cells. Particulars: U2OS 2-6-3 cell line; n > 50 nuclei per construct from 3 biological replicates; parent: est. 0.90; read off a plot.
The target of assay [3] is T1, Human TRF2 (human), Q15554.
T1 chain: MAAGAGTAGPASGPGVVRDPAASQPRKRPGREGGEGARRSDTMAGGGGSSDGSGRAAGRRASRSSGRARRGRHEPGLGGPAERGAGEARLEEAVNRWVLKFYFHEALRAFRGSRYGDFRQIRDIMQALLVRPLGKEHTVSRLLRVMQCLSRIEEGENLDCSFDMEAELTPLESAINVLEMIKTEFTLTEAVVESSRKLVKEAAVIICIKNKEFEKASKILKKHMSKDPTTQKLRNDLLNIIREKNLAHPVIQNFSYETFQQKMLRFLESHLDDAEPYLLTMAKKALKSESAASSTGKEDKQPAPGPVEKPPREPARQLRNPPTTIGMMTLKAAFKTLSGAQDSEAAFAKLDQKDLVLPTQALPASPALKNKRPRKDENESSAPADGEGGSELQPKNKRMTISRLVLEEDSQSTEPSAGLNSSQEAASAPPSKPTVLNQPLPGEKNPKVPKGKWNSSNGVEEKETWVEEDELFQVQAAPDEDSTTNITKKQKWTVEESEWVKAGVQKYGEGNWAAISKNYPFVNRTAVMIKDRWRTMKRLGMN
Put plainly: SEC-MALS; purified proteins or co-expressed, purified complexes at 1 mg ml^−1, 100 µl on Superose 6 Increase 10/300 GL, 0.5 ml min^−1, 25 °C, 50 mM HEPES pH 7.5, 300 mM NaCl, 1 mM TCEP. The following applies: remark: other sources report otherwise.

Assay [4] has as its target T2, Human TIN2 (human, UniProt Q9BSI4-2 1-354).
T2 construct: cDNA cloned into pFastBac1; called full-length in the discussion; not shown: His6, N-terminal, cleaved; MBP, N-terminal, cleaved
T2 sequence (looked up): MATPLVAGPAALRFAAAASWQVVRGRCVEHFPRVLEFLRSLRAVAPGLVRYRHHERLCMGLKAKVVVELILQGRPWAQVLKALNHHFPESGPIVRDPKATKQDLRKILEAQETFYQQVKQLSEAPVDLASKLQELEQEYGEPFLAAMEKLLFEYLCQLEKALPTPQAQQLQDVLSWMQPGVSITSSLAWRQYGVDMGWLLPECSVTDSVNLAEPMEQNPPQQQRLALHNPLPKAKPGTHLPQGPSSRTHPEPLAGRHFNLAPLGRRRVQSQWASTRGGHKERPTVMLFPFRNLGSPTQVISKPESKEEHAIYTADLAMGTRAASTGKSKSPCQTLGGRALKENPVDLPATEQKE
The assay is described as above. The following applies: both partners purified.

The target in assay [5] is T3, Human TRF1 (human), P54274.
T3 chain: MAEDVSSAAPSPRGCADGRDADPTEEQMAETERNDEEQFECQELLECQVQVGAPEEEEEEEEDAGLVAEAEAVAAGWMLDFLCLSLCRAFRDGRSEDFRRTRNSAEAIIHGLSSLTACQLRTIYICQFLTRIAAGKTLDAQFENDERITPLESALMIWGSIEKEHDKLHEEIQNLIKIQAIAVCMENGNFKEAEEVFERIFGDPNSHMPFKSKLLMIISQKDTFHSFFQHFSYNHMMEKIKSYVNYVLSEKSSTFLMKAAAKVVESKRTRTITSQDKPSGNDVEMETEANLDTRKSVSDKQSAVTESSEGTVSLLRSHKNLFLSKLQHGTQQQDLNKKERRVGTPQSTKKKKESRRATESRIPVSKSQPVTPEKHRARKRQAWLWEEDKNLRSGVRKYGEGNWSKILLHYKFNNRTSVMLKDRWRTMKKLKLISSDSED
Described as above. Particulars: remark: other sources report otherwise.

Assay [6] has as its target eGFP–TPP1_(480–544)–LacI (human). Put plainly: LacI–LacO array recruitment (fluorescence colocalisation); eGFP–TPP1–LacI constructs tethered to a LacO array in U2-OS 2-6-3 cells, co-transfected with mCherry-TIN2S; fixed 24 h after transfection; fraction of nuclei with mCherry at the single GFP focus.
For assay [7], the target named is eGFP–TPP1–LacI (human) (UniProt Q96AP0). The description is as above.
Sequence of eGFP–TPP1–LacI (human) (Q96AP0 whole entry): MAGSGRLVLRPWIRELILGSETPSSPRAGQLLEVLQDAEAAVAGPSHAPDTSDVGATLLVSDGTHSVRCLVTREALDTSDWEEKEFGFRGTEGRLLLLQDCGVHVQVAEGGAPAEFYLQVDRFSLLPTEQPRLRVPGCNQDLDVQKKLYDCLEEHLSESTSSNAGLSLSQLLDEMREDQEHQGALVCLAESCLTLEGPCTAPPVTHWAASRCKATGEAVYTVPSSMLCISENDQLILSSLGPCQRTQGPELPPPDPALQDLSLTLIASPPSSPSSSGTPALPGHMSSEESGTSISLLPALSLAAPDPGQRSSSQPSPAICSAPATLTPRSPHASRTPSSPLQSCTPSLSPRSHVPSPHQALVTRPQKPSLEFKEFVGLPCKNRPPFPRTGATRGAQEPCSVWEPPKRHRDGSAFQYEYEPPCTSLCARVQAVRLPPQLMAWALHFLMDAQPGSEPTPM

Sequence of eGFP–TPP1_(480–544)–LacI (human) (Q96AP0 whole entry): as above

“Human TPP1 (from UniProt Q96AP0 1-458) (natural protein)” had a stoichiometry N (TPP1 per TIN2) in assay [1] of 1.

Turning to “eGFP–TPP1–LacI (from UniProt Q96AP0) NAAIRS 480 (six residues starting at 480 replaced by NAAIRS)”, the other: fraction of colocalization in assay [2] was found to be 0.92.

Consider “eGFP–TPP1–LacI (from UniProt Q96AP0) NAAIRS 486 (six residues starting at 486 replaced by NAAIRS)”, for which the other: fraction of colocalization in assay [2] amounted to 0.94.

On to “eGFP–TPP1–LacI (from UniProt Q96AP0) NAAIRS 492 (six residues starting at 492 replaced by NAAIRS)”, for which the other: fraction of colocalization in assay [2] stood at 0.93.

In the case of “eGFP–TPP1–LacI (from UniProt Q96AP0) NAAIRS 498 (six residues starting at 498 replaced by NAAIRS)”, the other: fraction of colocalization in assay [2] was found to be 0.88.

On to “eGFP–TPP1–LacI (from UniProt Q96AP0) NAAIRS 504 (six residues starting at 504 replaced by NAAIRS)”, for which the other: fraction of colocalization in assay [2] is 0.92.

In the case of “eGFP–TPP1–LacI (from UniProt Q96AP0) NAAIRS 510 (six residues starting at 510 replaced by NAAIRS)”, the other: fraction of colocalization in assay [2] was 0.88.

Take “eGFP–TPP1–LacI (from UniProt Q96AP0) NAAIRS 516 (six residues starting at 516 replaced by NAAIRS)”: the other: fraction of colocalization in assay [2] came to 0.93.

Turning to “eGFP–TPP1–LacI (from UniProt Q96AP0) NAAIRS 522 (six residues starting at 522 replaced by NAAIRS)”, in assay [2], the other: fraction of colocalization is 0.87.

“eGFP–TPP1–LacI (from UniProt Q96AP0) NAAIRS 534 (six residues starting at 534 replaced by NAAIRS)”: in assay [2], the other: fraction of colocalization stood at 0.93.

Take “eGFP–TPP1–LacI (from UniProt Q96AP0) NAAIRS 539 (six residues starting at 539 replaced by NAAIRS)”: the other: fraction of colocalization in assay [2] came out at 0.96.

B1: Human TRF2, Q15554 1-542 (natural protein)
chain: MAAGAGTAGPASGPGVVRDPAASQPRKRPGREGGEGARRSDTMAGGGGSSDGSGRAAGRRASRSSGRARRGRHEPGLGGPAERGAGEARLEEAVNRWVLKFYFHEALRAFRGSRYGDFRQIRDIMQALLVRPLGKEHTVSRLLRVMQCLSRIEEGENLDCSFDMEAELTPLESAINVLEMIKTEFTLTEAVVESSRKLVKEAAVIICIKNKEFEKASKILKKHMSKDPTTQKLRNDLLNIIREKNLAHPVIQNFSYETFQQKMLRFLESHLDDAEPYLLTMAKKALKSESAASSTGKEDKQPAPGPVEKPPREPARQLRNPPTTIGMMTLKAAFKTLSGAQDSEAAFAKLDQKDLVLPTQALPASPALKNKRPRKDENESSAPADGEGGSELQPKNKRMTISRLVLEEDSQSTEPSAGLNSSQEAASAPPSKPTVLNQPLPGEKNPKVPKGKWNSSNGVEEKETWVEEDELFQVQAAPDEDSTTNITKKQKWTVEESEWVKAGVQKYGEGNWAAISKNYPFVNRTAVMIKDRWRTMKRLGMN
For the molecule B1, the stoichiometry N (subunits in the oligomer) in assay [3] was 2.

B2: Human TRF2 (natural protein, UniProt Q15554 1-542, looked up)
chain: MAAGAGTAGPASGPGVVRDPAASQPRKRPGREGGEGARRSDTMAGGGGSSDGSGRAAGRRASRSSGRARRGRHEPGLGGPAERGAGEARLEEAVNRWVLKFYFHEALRAFRGSRYGDFRQIRDIMQALLVRPLGKEHTVSRLLRVMQCLSRIEEGENLDCSFDMEAELTPLESAINVLEMIKTEFTLTEAVVESSRKLVKEAAVIICIKNKEFEKASKILKKHMSKDPTTQKLRNDLLNIIREKNLAHPVIQNFSYETFQQKMLRFLESHLDDAEPYLLTMAKKALKSESAASSTGKEDKQPAPGPVEKPPREPARQLRNPPTTIGMMTLKAAFKTLSGAQDSEAAFAKLDQKDLVLPTQALPASPALKNKRPRKDENESSAPADGEGGSELQPKNKRMTISRLVLEEDSQSTEPSAGLNSSQEAASAPPSKPTVLNQPLPGEKNPKVPKGKWNSSNGVEEKETWVEEDELFQVQAAPDEDSTTNITKKQKWTVEESEWVKAGVQKYGEGNWAAISKNYPFVNRTAVMIKDRWRTMKRLGMN
notes: called full-length in the discussion; predicted dimer mass printed as 119 kDa; source: Tni insect cells (baculovirus), alone or co-expressed with other shelterin proteins, purified (final SEC)
On to B2, for which, in assay [4], the “stoichiometry N” value was 2 TRF2 per TIN2.

B3: Human TRF1, P54274-1 1-439 (natural protein)
chain: MAEDVSSAAPSPRGCADGRDADPTEEQMAETERNDEEQFECQELLECQVQVGAPEEEEEEEEDAGLVAEAEAVAAGWMLDFLCLSLCRAFRDGRSEDFRRTRNSAEAIIHGLSSLTACQLRTIYICQFLTRIAAGKTLDAQFENDERITPLESALMIWGSIEKEHDKLHEEIQNLIKIQAIAVCMENGNFKEAEEVFERIFGDPNSHMPFKSKLLMIISQKDTFHSFFQHFSYNHMMEKIKSYVNYVLSEKSSTFLMKAAAKVVESKRTRTITSQDKPSGNDVEMETEANLDTRKSVSDKQSAVTESSEGTVSLLRSHKNLFLSKLQHGTQQQDLNKKERRVGTPQSTKKKKESRRATESRIPVSKSQPVTPEKHRARKRQAWLWEEDKNLRSGVRKYGEGNWSKILLHYKFNNRTSVMLKDRWRTMKKLKLISSDSED
Molecule B3 gave a stoichiometry N (subunits in the oligomer) in assay [5] of 2.

B4: mCherry-TIN2S (natural protein)
chain: MATPLVAGPAALRFAAAASWQVVRGRCVEHFPRVLEFLRSLRAVAPGLVRYRHHERLCMGLKAKVVVELILQGRPWAQVLKALNHHFPESGPIVRDPKATKQDLRKILEAQETFYQQVKQLSEAPVDLASKLQELEQEYGEPFLAAMEKLLFEYLCQLEKALPTPQAQQLQDVLSWMQPGVSITSSLAWRQYGVDMGWLLPECSVTDSVNLAEPMEQNPPQQQRLALHNPLPKAKPGTHLPQGPSSRTHPEPLAGRHFNLAPLGRRRVQSQWASTRGGHKERPTVMLFPFRNLGSPTQVISKPESKEEHAIYTADLAMGTRAASTGKSKSPCQTLGGRALKENPVDLPATEQKE
For the molecule B4, the fraction of LacO sites with colocalisation in assay [6] and in assay [7] was 90% each time.
